Ends that are not written are not given here.
Experiments:
[1] = biological target: T1, TLR4 (Mus musculus, UniProt Q9QUK6); test: LPS-induced TNFα in immortalised murine macrophages, ELISA; format: cell-based; set-up: endogenous in cells; immortalised murine bone-marrow-derived macrophages; conditions: peptide 1, 3, 6.25 and 12.5 μM, 20 ng/ml LPS, 6 h
T1 sequence (Q9QUK6 26-835): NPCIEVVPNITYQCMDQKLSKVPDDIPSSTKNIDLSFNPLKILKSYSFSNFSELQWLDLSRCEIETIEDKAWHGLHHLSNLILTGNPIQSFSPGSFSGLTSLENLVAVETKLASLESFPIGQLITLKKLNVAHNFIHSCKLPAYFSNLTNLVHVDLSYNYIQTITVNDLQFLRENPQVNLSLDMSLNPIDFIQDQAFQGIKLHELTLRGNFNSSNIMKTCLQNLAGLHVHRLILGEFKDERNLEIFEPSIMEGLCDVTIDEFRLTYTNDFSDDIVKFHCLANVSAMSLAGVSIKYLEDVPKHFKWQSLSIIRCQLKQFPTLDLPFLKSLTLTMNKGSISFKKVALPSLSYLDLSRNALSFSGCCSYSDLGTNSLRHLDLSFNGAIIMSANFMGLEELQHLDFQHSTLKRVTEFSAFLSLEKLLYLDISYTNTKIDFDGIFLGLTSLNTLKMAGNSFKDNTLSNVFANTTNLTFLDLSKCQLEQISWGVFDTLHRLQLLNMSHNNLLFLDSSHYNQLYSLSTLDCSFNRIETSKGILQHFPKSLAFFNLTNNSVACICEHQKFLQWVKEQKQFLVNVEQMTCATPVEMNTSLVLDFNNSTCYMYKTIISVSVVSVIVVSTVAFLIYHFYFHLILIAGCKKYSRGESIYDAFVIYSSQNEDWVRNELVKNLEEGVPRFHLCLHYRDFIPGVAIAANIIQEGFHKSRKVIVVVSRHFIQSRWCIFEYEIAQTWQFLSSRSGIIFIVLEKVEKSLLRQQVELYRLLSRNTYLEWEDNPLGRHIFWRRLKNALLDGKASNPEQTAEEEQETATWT
T1 sequence (Q9JHF9 19-160 partner): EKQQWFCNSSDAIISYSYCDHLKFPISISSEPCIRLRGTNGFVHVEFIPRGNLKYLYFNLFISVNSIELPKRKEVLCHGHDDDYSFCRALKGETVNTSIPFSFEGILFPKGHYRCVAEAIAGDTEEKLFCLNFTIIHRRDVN

[2] = tested on: TLR4; test: LPS-induced NFκB reporter assay in HEK293_TLR4 cells; format: cell-based, human; conditions: peptide 1, 5 or 25 μM 1 h before 10 ng/ml LPS, 6 h
Method: (§1) FIGS. 20A and B are bar charts showing the effect of shortened A464 peptides with deletions of N- and C-terminal amino acids on TLR4- and TLR3-induced NFκB activation in HEK293 cells. HEK293_TLR4 (A) and HEK293_TLR3 (B) cells were seeded in 96 well plates (1.5×10^5 cells/ml) 24 hours before transfection with the plasmid DNA. Cells were transfected with 60 ng NFκB-Luciferase and 20 ng of TK-Renilla reporter genes, as in FIG. 11. A464N-2 (SEQ ID NO. 41) and A464C-3 (SEQ ID NO. 42) peptides were added to the cells at a concentration of 1, 5 or 25 μM the next day and cells were stimulated with either 10 ng/ml LPS (A) or 25 μg/ml Poly(I:C) (B) 1 hour after treatment with peptides. Cells were harvested and assayed for NFκB activation by reporter gene assay 6 hours after stimulation with the agonists. No peptides were added to the control wells (black bars). Data is representative of three experiments each performed in triplicate and is expressed as mean fold induction±s.d. relative to control levels;
FIGS. 24A and B are bar charts showing the effect of A464 on ligand-independent TLR4 signalling in HEK293 cells. HEK293_TLR4 cells were seeded in 96 well plate (1.5×10^5 cells/ml) 24 hours before transfection with NFκB-luciferase and TK-Renilla reporter gene plasmids. NFκB activation was stimulated by transfecting either 50 or 100 ng of CD4/TLR4-encoding plasmid or by stimulating with 10 ng/ml LPS. The total amount of plasmid DNA transfected into the cells was made up to 230ng by adding pcDNA. A464 (SEQ ID NO. 20) was added to the cells at a concentration of 5 or 25 μM 2 hours (A) or 9 hours (B) after the transfection or LPS-stimulation. Cells were harvested and assayed for NFκB activation by reporter gene assay 24 hours post-transfection. No peptides were added to the control wells (black bars). Data is representative of two experiments, each performed in triplicate and is expressed as mean fold induction±s.d. relative to control levels;
HEK293 cells were transfected using GeneJuice® a proprietary non-toxic transfection reagent. […]

[3] = biological target: T2, TLR3 (Homo sapiens, UniProt O15455); test: poly(I:C)-induced NFκB / ISRE luciferase reporter assay in HEK293_TLR3 cells; format: cell-based; conditions: peptide 1, 5 or 25 μM, 25 μg/ml Poly(I:C), 6 h
T2 construct: expressed in transfected cells
Method: FIGS. 11A and B are bar charts showing the effect of A464 and scrambled A464 (ConA464) on poly(I:C)-induced TLR3 signalling in HEK293 cells. HEK293_TLR3 cells were seeded in 96 well plates (1.5×10^5 cells/ml) 24 hours before transfection with the plasmid DNA. Cells were transfected with 60 ng of either ISRE-Luciferase (A) or NFκB-Luciferase (B) and 20 ng of TK-Renilla reporter gene plasmids. The total volume of plasmid DNA transfected into the cells was made up to 230 ng by adding pcDNA.
Scrambled A464 (ConA464) (SEQ ID NO. 32) and A464 (SEQ ID NO. 20) peptides were added to the cells at a concentration of 2, 5 or 10 μM the next day and cells were stimulated with 25 μg/ml poly(I:C) 1 hour after treatment with the peptide. Cells were harvested and reporter gene assays performed 6 hr after stimulation with the agonist. No peptides were added to the control wells (black bars). Data is representative of at least three experiments each performed in triplicate. Data are expressed as mean fold induction±s.d. relative to control levels;
as §1
HEK293 cells were transfected using GeneJuice® a proprietary non-toxic transfection reagent. 200 μl/well cells at a density of 1×10^5 cells/ml were seeded the day before transfection. 0.8 μl of GeneJuice was mixed with 9.2 μl of serum-free DMEM (SFM) per transfection and incubated for 5 min at room temperature before adding the appropriate amount of the plasmid DNA. The GeneJuice/SFM/DNA mixture was then incubated at room temperature for 15 min before adding to the cells. 10 μl per well of the GeneJuice/SMF/DNA mixture was added to the cells in triplicate and the cells were allowed to recover for 18-20 hours before stimulation. […]

[4] = tested on: TLR4; test: LPS-induced TNFα in PMA-differentiated U937 cells, ELISA; format: cell-based, human; conditions: peptide 5 or 20 μM 1 h before 100 ng/ml LPS, 24 h
Method: FIGS. 3A and B are bar charts showing the effect of peptides derived from A46 on LPS-induced TNFα in human U937 cells. Cells were differentiated with 200 nM PMA and seeded in 96 well plates (2×10^5 cells/ml) 24 hours before treatment. A46 peptides were added to the cells at a concentration of 5 or 20 μM 1 hour before stimulating with 100 ng/ml LPS. Supernatants were collected 24 hours after stimulation and assayed for TNFα by ELISA. No peptides were added into the control wells (black bars). (A) peptides A461-A467 (SEQ ID NO. 17 to 23). (B) peptides A468-A4614 (SEQ ID NO. 24 to 30) (excluding A4612 SEQ ID NO. 28). Data is representative of at least two experiments each performed in triplicate and is expressed as mean±s.d;
Cytokine and chemokine production from cells or mouse serum was measured by ELISA using Duoset kits from R&D systems, according to the manufacturer's instructions.
LPS is a component of a cell wall of Gram-negative bacteria which is recognised by a homodimer of TLR4 and signals to NFκB via both a MyD88- and TRIF-dependent pathway (O'Neill and Bowie, 2007). In order to examine the effect of the peptides on TLR4-dependent gene induction in human cells, the human monocytic lymphoma cell line U937 was used. U937 cells were differentiated into macrophages by treatment with 200 nM PMA for 24 hours before any further manipulations. […]

[5] = tested on: PBMCs; test: MTT cell viability assay, PBMC; format: cell-based, human; conditions: peptide 1, 5 and 25 μM
Method: FIGS. 13A and B are bar charts showing the effect of A467 and A464 on LPS-induced TNFα production and on cell viability in primary human cells. Peripheral blood mononuclear cells (PBMCs) were seeded in 96 well plates (1 ×10^6 cells/ml) 24 hours before treatment. A467 (SEQ ID NO. 23) and A464 (SEQ ID NO. 20) were added to the cells at 1, 5 and 25 μM 1 hour before stimulating with 10 ng/ml LPS. The peptides were added into the unstimulated control wells at 25 μM. Supernatants were collected 6 hours after stimulation and assayed for TNFα production by ELISA (A). The cells were assayed for viability by the MTT assay (B). No peptides were added to the control wells (black bars). Data is representative of at least three experiments each performed in triplicate and is expressed as mean±s.d;
Cell viability was measured by assessing mitochondrial function using an MTT (3-(4,5-Dimethylthiazol-2-yl)-2,5-diphenyltetrazolium bromide) assay. Cells were seeded into 96 well plates and treated with peptides and agonists as described above in relation to the Figs. Wells containing medium only served as a blank control. To terminate treatment of cells, medium was removed and the cells were washed once with PBS. […] MTT was then removed and 200 μl per well of dimethyl sulphoxide (DMSO) was added and cells incubated for 20 min at 37° C. in the dark, prior to absorbance being read at 595 nm on a spectrophotometer.

TLR4, sequence (O00206 24-839): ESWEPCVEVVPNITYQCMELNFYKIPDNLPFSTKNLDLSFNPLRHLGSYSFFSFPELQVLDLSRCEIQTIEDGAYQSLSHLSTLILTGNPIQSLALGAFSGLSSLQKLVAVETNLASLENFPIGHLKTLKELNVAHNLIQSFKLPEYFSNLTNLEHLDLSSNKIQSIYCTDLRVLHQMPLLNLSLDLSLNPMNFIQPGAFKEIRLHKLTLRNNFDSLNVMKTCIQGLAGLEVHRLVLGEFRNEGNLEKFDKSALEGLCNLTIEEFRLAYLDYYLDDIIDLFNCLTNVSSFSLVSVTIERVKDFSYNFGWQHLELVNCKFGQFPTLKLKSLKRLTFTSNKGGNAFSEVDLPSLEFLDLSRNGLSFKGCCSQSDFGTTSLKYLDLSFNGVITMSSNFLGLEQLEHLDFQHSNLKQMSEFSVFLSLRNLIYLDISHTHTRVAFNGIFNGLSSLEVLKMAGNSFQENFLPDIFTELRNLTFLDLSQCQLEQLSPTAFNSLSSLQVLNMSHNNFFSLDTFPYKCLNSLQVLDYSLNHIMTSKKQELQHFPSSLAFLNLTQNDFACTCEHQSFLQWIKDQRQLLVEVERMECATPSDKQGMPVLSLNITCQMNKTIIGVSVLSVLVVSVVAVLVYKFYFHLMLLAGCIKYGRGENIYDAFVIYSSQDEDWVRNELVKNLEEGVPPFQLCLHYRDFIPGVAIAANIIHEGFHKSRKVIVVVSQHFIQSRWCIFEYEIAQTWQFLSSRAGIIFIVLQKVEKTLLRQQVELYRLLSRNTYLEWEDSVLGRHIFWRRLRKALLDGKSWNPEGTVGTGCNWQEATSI
TLR4, sequence (Q9Y6Y9 17-160 partner limits assumed): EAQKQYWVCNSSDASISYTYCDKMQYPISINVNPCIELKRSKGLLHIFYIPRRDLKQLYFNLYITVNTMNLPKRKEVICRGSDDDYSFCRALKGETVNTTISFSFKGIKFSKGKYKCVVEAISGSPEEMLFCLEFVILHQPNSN

9R-FKLI (RRRRRRRRRFKLI) [Peptide 9R-FKLI]
inhibition of TLR4-induced murine TNFα by shorter versions of sA464N9R [1]: did not

9R-FKLIL (RRRRRRRRRFKLIL) [Peptide 9R-FKLIL]
inhibition of TLR4-induced murine TNFα by shorter versions of sA464N9R [1]: retained the ability to inhibit TLR4

9R-SFKLFL (RRRRRRRRRSFKLFL) [Peptide 9R-SFKLFL]
inhibition of TLR4-induced murine TNFα by shorter versions of sA464N9R [1]: did not

9R-SFKLI (RRRRRRRRRSFKLI) [Peptide 9R-SFKLI]
inhibition of TLR4-induced murine TNFα by shorter versions of sA464N9R [1]: did not

KYSFKLIL-9R (KYSFKLILRRRRRRRRR) [Peptide A464C-3]
inhibition of LPS-induced NFκB activation by shortened peptides [2]: inhibited LPS-induced NFκB activation completely at 1 μM | inhibition of Poly(I:C)-induced NFκB activation (TLR3) by shortened peptides [3]: no inhibition of TLR3 signalling to NFκB up to 25 μM

LILAEYIRHRNRRRRRRRRR [Peptide A465]
inhibition of LPS (TLR4)-induced TNFα production [4]: did not inhibit TLR4 responses

RNTISGNIYSARRRRRRRRR [Peptide A467]
toxicity (MTT) [5]: not toxic

SFKLILAEY-9R (SFKLILAEYRRRRRRRRR) [Peptide A464N-2]
inhibition of LPS-induced NFκB activation by shortened peptides [2]: inhibited LPS-induced NFκB activation completely at 1 μM | inhibition of Poly(I:C)-induced NFκB activation (TLR3) by shortened peptides [3]: no inhibition of TLR3 signalling to NFκB up to 25 μM

From patent publication US8722052B2, “Vaccinia virus protein A46 peptide and use thereof” (priority 2008, dated 2014)
